# Source: patent publication US20240327535A1 (EISAI R AND D MANAGEMENT, published 2024)
# T1: extracellular domain of human BCMA (human, UniProt Q02223 1-54)
# T1 construct: amine-linked to Octet AR2G tips; also called hsBCMA; BCMA (human)
# T1 sequence: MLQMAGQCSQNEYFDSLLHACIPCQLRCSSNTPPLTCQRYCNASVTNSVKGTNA
# Tests used:
# [1] = target: T1, extracellular domain of human BCMA; experiment: Octet BLI; Fab 200 nM
# [2] = target: T2, extracellular domain of rhesus monkey BCMA (rhesus monkey, UniProt F7FFA0 1-53); experiment: Octet BLI; Fab 200 nM
# T2 construct: extracellular domain; also called RhBCMA
# T2 sequence (F7FFA0 entry or part of it): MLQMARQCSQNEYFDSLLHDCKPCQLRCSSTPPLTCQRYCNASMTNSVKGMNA
Binder,Kd [1] [nM],Kd [2] [nM]
"AB200-R1a-Fab_Vk7 (Fab, V domains shown) VH: QVQLVQSGAEVKKPGSSVKVSCKASGGTFSNYWMHWVRQAPGQGLEWMGATYRGHSDTYYNQKFKGRVTITADKSTSTAYMELSSLRSEDTAVYYCARGAIYHGYDVLDNWGQGTLVTVSS VL: DIQMTQSPSSLSASVGDRVTITCSASQDISNFLNWYQQKPGKAPKLLIYYTSNLHSGVPSRFSGSGSGTDFTLTISSLQPEDFATYYCQQFRKMPWTFGQGTKLEIKR",14.7,25.1
"AB200-R1a-Fab_Vk11 (Fab, V domains shown) VH: QVQLVQSGAEVKKPGSSVKVSCKASGGTFSNYWMHWVRQAPGQGLEWMGATYRGHSDTYYNQKFKGRVTITADKSTSTAYMELSSLRSEDTAVYYCARGAIYHGYDVLDNWGQGTLVTVSS VL: DIQMTQSPSSLSASVGDRVTITCRASQDVSNYLNWYQQKPGKAPKLLIYYTTNLHSGVPSRFSGSGSGTDFTLTISSLQPEDFATYYCQQYRKLPWTFGQGTKLEIKR",1.53,5.74
"AB200-R1a-Fab_Vk14 (Fab, V domains shown) VH: QVQLVQSGAEVKKPGSSVKVSCKASGGTFSNYWMHWVRQAPGQGLEWMGATYRGHSDTYYNQKFKGRVTITADKSTSTAYMELSSLRSEDTAVYYCARGAIYHGYDVLDNWGQGTLVTVSS VL: DIQMTQSPSSLSASVGDRVTITCSASQDISNYLNWYQQKPGKAPKLLIYYSSNMHSGVPSRFSGSGSGTDFTLTISSLQPEDFATYYCQQFRKLPWTFGQGTKLEIKR",4.03,11.5
"AB200-R1a-Fab_Vk23 (Fab, V domains shown) VH: QVQLVQSGAEVKKPGSSVKVSCKASGGTFSNYWMHWVRQAPGQGLEWMGATYRGHSDTYYNQKFKGRVTITADKSTSTAYMELSSLRSEDTAVYYCARGAIYHGYDVLDNWGQGTLVTVSS VL: DIQMTQSPSSLSASVGDRVTITCSASQDISNYLNWYQQKPGKAPKLLIYYTSNIHSGVPSRFSGSGSGTDFTLTISSLQPEDFATYYCQQYKKMPWTFGQGTKLEIKR",16.8,29.7
"AB200-R1a-Fab_Vk27 (Fab, V domains shown) VH: QVQLVQSGAEVKKPGSSVKVSCKASGGTFSNYWMHWVRQAPGQGLEWMGATYRGHSDTYYNQKFKGRVTITADKSTSTAYMELSSLRSEDTAVYYCARGAIYHGYDVLDNWGQGTLVTVSS VL: DIQMTQSPSSLSASVGDRVTITCSASQDITNYLNWYQQKPGKAPKLLIYFTSNLHSGVPSRFSGSGSGTDFTLTISSLQPEDFATYYCQQYYKLPWTFGQGTKLEIKR",6.39,10.7
"AB200-R1a-Fab_Vk22 (Fab, V domains shown) VH: QVQLVQSGAEVKKPGSSVKVSCKASGGTFSNYWMHWVRQAPGQGLEWMGATYRGHSDTYYNQKFKGRVTITADKSTSTAYMELSSLRSEDTAVYYCARGAIYHGYDVLDNWGQGTLVTVSS VL: DIQMTQSPSSLSASVGDRVTITCRASQDISNYLNWYQQKPGKAPKLLIYYTSNLHSGVPSRFSGSGSGTDFTLTISSLQPEDFATYYCQQYRSIPWTFGQGTKLEIKR",2.48,9.91
"AB200-R1a-Fab_Vk19 (Fab, V domains shown) VH: QVQLVQSGAEVKKPGSSVKVSCKASGGTFSNYWMHWVRQAPGQGLEWMGATYRGHSDTYYNQKFKGRVTITADKSTSTAYMELSSLRSEDTAVYYCARGAIYHGYDVLDNWGQGTLVTVSS VL: DIQMTQSPSSLSASVGDRVTITCSASNDISNYINWYQQKPGKAPKLLIYYTSNLHSGVPSRFSGSGSGTDFTLTISSLQPEDFATYYCQQFRKLPWTFGQGTKLEIKR",2.07,5.74
"AB200-R1a-Fab_Vk20 (Fab, V domains shown) VH: QVQLVQSGAEVKKPGSSVKVSCKASGGTFSNYWMHWVRQAPGQGLEWMGATYRGHSDTYYNQKFKGRVTITADKSTSTAYMELSSLRSEDTAVYYCARGAIYHGYDVLDNWGQGTLVTVSS VL: DIQMTQSPSSLSASVGDRVTITCSASQDISNFLNWYQQKPGKAPKLLIYYTSDLHSGVPSRFSGSGSGTDFTLTISSLQPEDFATYYCQQYYKLPWTFGQGTKLEIKR",12.8,13.5
"AB200-R1a-Fab_Vk26 (Fab, V domains shown) VH: QVQLVQSGAEVKKPGSSVKVSCKASGGTFSNYWMHWVRQAPGQGLEWMGATYRGHSDTYYNQKFKGRVTITADKSTSTAYMELSSLRSEDTAVYYCARGAIYHGYDVLDNWGQGTLVTVSS VL: DIQMTQSPSSLSASVGDRVTITCSASQDISNYLNWYQQKPGKAPKLLIYYSSSLHIGVPSRFSGSGSGTDFTLTISSLQPEDFATYYCQQYRKLPWTFGQGTKLEIKR",5.56,17.9
"AB200-R1a-Fab_Vk17 (Fab, V domains shown) VH: QVQLVQSGAEVKKPGSSVKVSCKASGGTFSNYWMHWVRQAPGQGLEWMGATYRGHSDTYYNQKFKGRVTITADKSTSTAYMELSSLRSEDTAVYYCARGAIYHGYDVLDNWGQGTLVTVSS VL: DIQMTQSPSSLSASVGDRVTITCSATQDISNYLNWYQQKPGKAPKLLIYYTTNLHSGVPSRFSGSGSGTDFTLTISSLQPEDFATYYCQQYYKLPWTFGQGTKLEIKR",4.45,7.71
"AB200-R1a-Fab_Vk13 (Fab, V domains shown) VH: QVQLVQSGAEVKKPGSSVKVSCKASGGTFSNYWMHWVRQAPGQGLEWMGATYRGHSDTYYNQKFKGRVTITADKSTSTAYMELSSLRSEDTAVYYCARGAIYHGYDVLDNWGQGTLVTVSS VL: DIQMTQSPSSLSASVGDRVTITCSASNDISNYLNWYQQKPGKAPKLLIYYSSDLHSGVPSRFSGSGSGTDFTLTISSLQPEDFATYYCQQYRKLPWTFGQGTKLEIKR",7.14,24.6
"AB200-R1a-Fab_Vk28 (Fab, V domains shown) VH: QVQLVQSGAEVKKPGSSVKVSCKASGGTFSNYWMHWVRQAPGQGLEWMGATYRGHSDTYYNQKFKGRVTITADKSTSTAYMELSSLRSEDTAVYYCARGAIYHGYDVLDNWGQGTLVTVSS VL: DIQMTQSPSSLSASVGDRVTITCSASQDISNFLNWYQQKPGKAPKLLIYYTSNMHSGVPSRFSGSGSGTDFTLTISSLQPEDFATYYCQQYRSLPWTFGQGTKLEIKR",4.87,7.57
"AB200-R1a-Fab_Vk21 (Fab, V domains shown) VH: QVQLVQSGAEVKKPGSSVKVSCKASGGTFSNYWMHWVRQAPGQGLEWMGATYRGHSDTYYNQKFKGRVTITADKSTSTAYMELSSLRSEDTAVYYCARGAIYHGYDVLDNWGQGTLVTVSS VL: DIQMTQSPSSLSASVGDRVTITCSASQDISNYLNWYQQKPGKAPKLLIYYTSNLHSGVPSRFSGSGSGTDFTLTISSLQPEDFATYYCHQYKKTPWTFGQGTKLEIKR",32.7,61.4
"AB200-R1a-Fab_Vk24 (Fab, V domains shown) VH: QVQLVQSGAEVKKPGSSVKVSCKASGGTFSNYWMHWVRQAPGQGLEWMGATYRGHSDTYYNQKFKGRVTITADKSTSTAYMELSSLRSEDTAVYYCARGAIYHGYDVLDNWGQGTLVTVSS VL: DIQMTQSPSSLSASVGDRVTITCSASNSISNYLNWYQQKPGKAPKLLIYYASNLHSGVPSRFSGSGSGTDFTLTISSLQPEDFATYYCQQYRKLPWTFGQGTKLEIKR",5.11,14.2
"AB200-R1a-Fab_Vk18 (Fab, V domains shown) VH: QVQLVQSGAEVKKPGSSVKVSCKASGGTFSNYWMHWVRQAPGQGLEWMGATYRGHSDTYYNQKFKGRVTITADKSTSTAYMELSSLRSEDTAVYYCARGAIYHGYDVLDNWGQGTLVTVSS VL: DIQMTQSPSSLSASVGDRVTITCTASQDISNYLNWYQQKPGKAPKLLIYYTSDLHIGVPSRFSGSGSGTDFTLTISSLQPEDFATYYCQQYRKLPWTFGQGTKLEIKR",2.93,11
